Results on 16 molecules are retold here after US12649778.

Where two headings read alike, the source gives them in different places.

Experiment [1] has as its target Peptide 2004 (…) (Mycobacterium tuberculosis).
Experiment [2] deals with monoclonal antibody 65D3-1.
For experiment [3], the target named is Peptide 1593 (…) (Mycobacterium tuberculosis). The experiment is described as follows: indirect ELISA, supernatant on 1 ug/ml coated peptide. A general note: In an ELISA, binding on a coated surface is turned into a signal by an enzyme label.
The target is the same in experiment [4].
Experiment [5] shares this target. The experiment is described as follows: SPR (Biacore 8K), antibody immobilised, peptide as analyte.
Experiment [6] shares this target. The experiment is described as follows: SPR (Biacore 8K), antibody amine-coupled to CM5, peptide as analyte, 25 C.
Experiment [7] shares this target. In words: SPR (Biacore), IgG amine-coupled, peptide as analyte.
The target is the same in experiment [8]. The source holds these as a separate data set.
Experiment [9] has the same target. In words: indirect ELISA, recombinant antibody on 1 ug/ml coated peptide.

B1: Antibody 10G3-1 (antibody, V domains shown)
VH: QSVEESGGRLVTPGTPLTLTCTASGFSLSDDAMSWVRQAPGKGLEWIGIIGRRGKTWYANWAKGRFTISKTSTTVDLKITSPTTEDTATYFCARGYVSSDWNIYGMDLWGPGTLVTVSA
VL: QVLTQTPSPVSAAVGGTVTINCQASQSVYNNKNLAWYQQKSGQPPKLLIYEASKLASGVPSRFKGSGSGTQFTLTISGVQCDDAATYYCQGEFSCSSADCFTFGGGTEVVVK
With B1, the rank by relative ELISA signal across the dilution series (1 = highest) in experiment [1] turned out to be 5.

Take TDAATLAQEAGNFERC (modifications not checked) [Peptide 1593 (…)]: the IC50 (read off the curve) in [2] is 2 nM.

B2: Antibody 3E9-1 (antibody, V domains shown)
VH: QSLEESGGRLVTPGGSLTLTCTVSGIDLSSNAMGWVRQAPGEGLEWIGSIYASGNTYYASWAKGRFAISKTSTTVDLKMTSLTAADTATYFCARLFNIWGPGTLVTVSS
VL: ADIVLTQTPASVSSVVGGTVTINCQASQSVFDNKNLSWFQQKPGQPPKQLIYGASTLDSGVPSRFKGSGSGTQFTLTISDMQCDDAATYYCGGRDSGNIYDFGGGTEVVVK
Molecule B2 showed a rank by relative ELISA signal across the dilution series (1 = highest) in experiment [1] of 7.

B3: Antibody 21F10-1 (antibody, V domains shown)
VH: QSVEESGGRLVTPGTPLTLTCTVSGIDLSSNAVGWVRQAPGEGLEWIGSIYSSGNSYYASWAKGRFAISRTSTTVDLKMTRLTAADTATYFCARLFNIWGPGTLVTVS
VL: ADIVLTQTPASVSSVVGGTVAINCQASQSVYDNKNLSWFQQKPGQTPKQLIYGASTLASGVPSRFKGSGSGTQFTLTISGVQCDDAATYYCGGRDDDNIYDFGGGTEVVVK
The molecule B3 came in with a rank by relative ELISA signal across the dilution series (1 = highest) in experiment [1] of 11.

B4: Antibody 76H12-1 (antibody, V domains shown)
VH: QELKESGGRLVTPGGSLTLSCTASGIDLSGSAMGWVRQAPGQGLEWIGSIYVSGNTYYASWAKGRFAISRTSTTVDLKMTSLTAADTATYFCARLLNIWGPGTLVTVSS
VL: ADIVLTQTPSPVSIAVGGTVTINCQASQSVYDNKNLAWFQQKPGQPPKQLIYGASTLASGVPSRFKGSGSGTQFTLTISGMQCDDAATYYCGGRDSDNIYDFGGGTEVVVK
B4: in [1], the rank by relative ELISA signal across the dilution series (1 = highest) amounted to 8.

B5: Antibody 4G6-1 (antibody, V domains shown)
VH: QSLEESGGRLVTPGTPLTLTCTVSGIDLSSNAMGWVRQAPGEGLQWIGSIYSSGNTYYASWARGRFAISRTSTTVDLKMTSLTAADTATYFCARLFNIWGPGTLVTVSS
VL: ADIVVTQTPASVSADVGGTVTINCQASQSVYDNKNLAWFQQKPGQPPKQLIYGASTVASGVPSRFKGSGSGTQFTLTISDVQCDDAATYYCGGRDNDNIYDFGGGTEVVVK
The molecule B5 showed a rank by relative ELISA signal across the dilution series (1 = highest) in experiment [1] of 10.

B6: Antibody 6D10-1 (antibody, V domains shown)
VH: QSVEESGGRLVTPGTPLTLTCTVSGFSLSDVTMSWVRQAPGKGLEWIGIIGRRGRIWYANWAKGRFTISKTSPTVDLKIISPTSDDTATYFCARGAVSSDWNMYGMDLWGPGTLVTVSS
VL: QVLTQTPSSVSAPVGGTVTINCQSSQSVYNNENLAWYQQKLGQPPKLLIYGASTLASGVSSRFEGSGSGTQFALTISGVQCDDAATYYCQGEFDCSSADCFAFGGGTEVVVK
Regarding B6, the rank by relative ELISA signal across the dilution series (1 = highest) in experiment [1] is 2.

B7: Antibody 55H8-1 (antibody, V domains shown)
VH: QSMEESGGRLVTPGTPLTLTCTVSGFSLSDHAMSWVRQAPGKGLEWIGIVGRRGRTYYASWAKGRFTISKTSTTVDLKITSPTIEDTATYFCARGYVSSDWNIYGMDLWGPGTLVTVSS
VL: QVLTQTPSPVSAAVGGTVTINCQASQSVYNNKNLAWYQQKPGQPPKLLIYEASTLASGVSSRFKGSGSGTQFTLTISGVQCDDAATYYCQGEFDCSSADCFAFGGGTEVVVK
The molecule B7 yielded a rank by relative ELISA signal across the dilution series (1 = highest) in [1] of 4.

B8: Antibody 5B7-1 (antibody, V domains shown)
VH: QSVEESGGRLVTPGTPLTLTCTVSGFSLSDVTISWVRQAPGKGLKWTGIIGRRGRIRYADWAKGRFTISKTSTTVDLKITSPTTDDTATYFCARAYVSSDWNIYGMDLWGPGTLVTVSS
VL: QVLTQTASPVSAPVGGTVTINCQASQSVYNNKNLAWYQQKLGQPPKLLIYEASKLASGVSSRFEGSGSGTQFALTISGVQCDDAATYYCQGEFDCSSADCFVFGGGTEVVVK
For B8, the rank by relative ELISA signal across the dilution series (1 = highest) in experiment [1] worked out at 3.

B9: Antibody 91B4-1 (antibody, V domains shown)
VH: QSLEESGGRLVSPGGSLTLTCTVSGIDLSRFGVSWVRQAPGKGLEWTGYIHTDGNVYYASWAKGRFTISKTSTTVDLKMTSLTTEDTATYFCARGGYAADLWGQAALVTVSS
VL: DPMLTQTPSSVSAAVGGTVTISCQSSESVYKNYLAWYQQKLGQPPKLLIGATSTLVSGVPSRFKGSGSRTQFSLTISDLECDDAATYYCVGGYTGKNVFGGGTEVVVK
For B9, in experiment [3], the OD450, supernatant 1:90 was 3.04 OD450; the OD450, supernatant 1:270 was 2.27 OD450; the OD450, supernatant 1:810 was found to be 1.3 OD450; the OD450, supernatant 1:2,430 was determined as 0.618 OD450. In experiment [3], the OD450, supernatant undiluted was 3.12 OD450 and the Titer is > 2430 dilution 1:x.

B10: Antibody 101G10-2 (antibody, V domains shown)
VH: QSVEESGGRLVTPGTPLTLTCTVSGFSLSSYDMTWVRQAPGKGLEYIGVISYGGSAYYASWAKGRFTISKTSTTVDLKITSPTTEDTATYFCARGDSDGSSELFNLWGQGTLVTVSS
VL: AVLTQTPSPVSAPVGGTVSINCQSSKSVYNNNCLSWYQQKPGQPPNLLIYGASTLASGVPSRFKGSGSGTQFTLTINDVQCDDAATYYCAGCFASTNDMYGFGGGSEVVVK
With B10, in experiment [3], the OD450, supernatant 1:90 is 3.22 OD450; the OD450, supernatant 1:270 was determined as 3.21 OD450; the OD450, supernatant 1:810 was 3.1 OD450; the OD450, supernatant 1:2,430 was found to be 2.41 OD450. In addition, in experiment [3], the OD450, supernatant undiluted is 3.23 OD450 and the Titer was > 2430 dilution 1:x.

B11: Antibody 125D9-1 (antibody, V domains shown)
VH: QPVEESGGRLVTPGTPLTLTCTVSGFSLSSYDMTWVRQAPGKGLEYIGVVAYGGATYYASWAKGRFTISKTSTTVDLKITSPTTEDTATYFCARGDSDGSSELFNLWGQGTLVTVSS
VL: AVLTQTPSPVSAAVGGTVTINCQSSKSVYNNNCLSWYQQKQGQPPKLLIYQASTPASGVPSRFKGSGSGTQFTLTINDVQCDDAATYYCAGCFASTSDMYGFGGGTGVVVK
With B11, in experiment [3], the OD450, supernatant 1:90 came to 3.37 OD450; the OD450, supernatant 1:270 came to 3.31 OD450; the OD450, supernatant 1:810 came out at 3.27 OD450; the OD450, supernatant 1:2,430 came out at 2.85 OD450. For the same molecule, in experiment [3], the OD450, supernatant undiluted is 3.2 OD450 and the Titer is > 2430 dilution 1:x.

B12: monoclonal antibody 65D3-1 (antibody, V domains shown)
VH: QSLEESGGRLVTPGGSLTLTCTVSGFSLSTHDISWVRQAPGKGLEWIGVIARRGSTYYASWAKGRFTISKTSTTVDLKITSPTIEDTATYFCAREEFDFWGQGTLVTVSS
VL: AVLTQTASPVSAAVGGTVTISCQSSQSVYNNKELSWFQQKPGQPPKLLISYASTLASGVPSRFKGSGSGTQFTLTISDLECDDAATYYCLGGYASTIDMWAFGGGTEVVVK
What is called koff is the rate constant with which the complex falls apart. Low values mean a long-lived complex, high ones a short-lived complex. A word on the kon: it is the rate constant with which the complex forms. Usually Kd stands for the constant that tells how readily two partners part at equilibrium. The low end stands for a tighter complex, the high end for a looser complex. In experiment [4], B12 displayed a koff of 0.000238 s⁻¹ and a kon of 138000 M⁻¹ s⁻¹. Moreover, the Kd in [5] is 1.72 nM. For the same molecule, the Kd in experiment [6] turned out to be 1.72 nM.

B13: 65D3 wild-type recombinant IgG (VH + VL) (antibody, V domains shown)
VH: QSLEESGGRLVTPGGSLTLTCTVSGFSLSTHDISWVRQAPGKGLEWIGVIARRGSTYYASWAKGRFTISKTSTTVDLKITSPTIEDTATYFCAREEFDFWGQGTLVTVSS
VL: AVLTQTASPVSAAVGGTVTISCQSSQSVYNNKELSWFQQKPGQPPKLLISYASTLASGVPSRFKGSGSGTQFTLTISDLECDDAATYYCLGGYASTIDMWAFGGGTEVVVK
In experiment [7], B13 had a dissociation constant (Kd) of 0.755 nM, a koff of 0.00017 s⁻¹ and an on-rate constant (kon) of 225000 M⁻¹ s⁻¹.

B14: Antibody 67G8-2 (antibody, V domains shown)
VH: QSVEESGGRLVTPGTPLTLTCTVSGFSLGNYDGHWVRQTPEKGLEWIGVIATIGDTYYASWAKGRFSISKTSATVELRITSPTTEDTATYFCVRGDSRTSNEIFNLWGQGTLVTVSS
VL: AVLTQTPSPVSAAVGGTLTINCQSTRSVHNNICLSWYQQKPGQPPKLLIYSASTLASGVPSRFKGSGSGTQFTLAINDVQCGDAATYYCAGCFPSKSDMYGFGGGTEVVVK
Consider B14, for which, in experiment [8], the Kd came to 0.101 nM, the koff stood at 3.02e-05 s⁻¹ and the kon came to 299000 M⁻¹ s⁻¹. In addition, in [9], the OD450 at 1.95 ng/ml (1:512,000) turned out to be 0.876 OD450, the OD450 at 3.90 ng/ml (1:256,000) worked out at 1.21 OD450, the OD450 at 7.81 ng/ml (1:128,000) was found to be 1.66 OD450 and the OD450 at 15.62 ng/ml (1:64,000) is 2.14 OD450. In experiment [9], the OD450 at 31.25 ng/ml (1:32,000) stood at 2.45 OD450, the OD450 at 62.50 ng/ml (1:16,000) is 2.61 OD450, the OD450 at 125.00 ng/ml (1:8,000) was determined as 2.76 OD450 and the OD450 at 250.00 ng/ml (1:4,000) was determined as 2.8 OD450. In addition, in experiment [9], the OD450 at 500.00 ng/ml (1:2,000) amounted to 2.83 OD450, the OD450 at 1,000.00 ng/ml (1:1,000) came out at 2.85 OD450 and the Titer is > 512000 dilution 1:x. Besides, in experiment [3], the OD450, supernatant 1:90 came out at 3.1 OD450; the OD450, supernatant 1:270 worked out at 2.33 OD450; the OD450, supernatant 1:810 was found to be 1.31 OD450; the OD450, supernatant 1:2,430 is 0.616 OD450. In [3], the OD450, supernatant undiluted was 3.22 OD450 and the Titer is > 2430 dilution 1:x.

B15: Antibody 135A6-1 (antibody, V domains shown)
VH: QSVEESGGRLVTPGTPLTLTCTVSGFSLGNYDISWVRQAPGKGLEWIGVIATVGDTYYASWAKGRFTISKTSATVDLKITSPTTEDTATYFCVRGDSPSTNEIFGLWGQGTLVTVSS
VL: AVLTQTPSPVSAAVGGTLTINCQSSRTVYNNICLSWYQQKLGQPPKLLIYGASTLTSGVPSRFRGSGSGTQFTLTINDVQCGDAATYYCAGCFPSTSDMYGFGGGTEVVVK
In the case of B15, in experiment [3], the OD450, supernatant 1:90 was determined as 3.46 OD450; the OD450, supernatant 1:270 turned out to be 3.22 OD450; the OD450, supernatant 1:810 worked out at 2.68 OD450; the OD450, supernatant 1:2,430 came to 1.69 OD450. In [3], the OD450, supernatant undiluted stood at 3.27 OD450 and the Titer is > 2430 dilution 1:x.
